Measurements: US11021533 (VANDERBILT UNIVERSITY, dated 2021)

B1: ZIKV-117 (antibody, V domains shown)
VH: QVQLVESGGGVVRPGGSLRLSCAASGFTFKNYGIHWVRQAPGKGPEWVAFVRYDGNNKYYADSVKGRFTISRDNAKNTLSLQMNSLRVEDTAVYFCARDPETFGGFDYWGQGTLVTVSS
VL: ETVMTQSPATLSVSPGERGTLSCRASESVSSNLAWYQQKPGKAPRLLIYGASTRATGIPDRFSGSGSGTEFTLTISSLQSEDFAVYYCQQYYYSPRTFGQGTKVEVK
B2: ZIKV-116 (antibody, V domains shown)
VH: EVKLVESGRGLVRPGGSLRLSCAASGFTFSNYAMSWVRQGPGMGLEWVSTITADSDSKYYVDSVKGRFTISRDNSKDTLFLHMTSLRAEDTAVYYCAKDRLSRGVGELYDSWGQGTLVTVSQ
VL: DIQMTQSPSTLSASVGDRVTITCRASQSIDVWLAWYQQKPGKAPKLLMYKTSTLQTGVPSRFSGSGSGTEFTLTISSLQTDDFATYYCQKYDSYPWTFGPGTKVEIK
B3: ZIKV-195 (antibody, V domains shown)
VH: QVQVVESGGGVVQPGRSLRLSCAASGFTFSSSAMHWVRQAPGKGLEWVAVISYDGSNKYYGDSVKGRFTISRDNSKNTLYLQMHSLRAEDTAVYYCAKDRDAYNTVGYFAYYYGMDVWGQGTLVTVSS
VL: QSVLTQPPSVSEAPRQRVTISCSGSSSNIGNNAVNWYQQLPGKAPKLLIYYDDLLPSGVSDRFSGSKSGTSASLAISGLQSEDEADYYCAAWDDSLTRYVFGTGTKVTVL
B4: ZIKV-216 (antibody, V domains shown)
VH: EVQLVQSGAEGKKPGESLKISCKGSGYNFSNYWIGWVRQMPGKGLEWMGIIYPGDSDTRYSPSFQGQVTISADKSINTAYLQWRSLRASDSAMFYCARGVMITTPNPYDWFDAWGQGTLVTVSS
VL: QSALTQPASVSGSPGQSITISCTGTGSDIGTYDYVSWYQQHPGKAPKLMIYGVTKRPSGVSHRFSGSKSVNTASLTISGLQAEDEADYFCSSYSTSSTFVVFGGGTKLTVL

Molecular target: ZIKV strain H/PF/2013 (French Polynesia, 2013) virus (Zika virus, strain H/PF/2013)
Test: cell-based or functional assay

Point of comparison: B1, “FRNT50 (focus reduction neutralization test on Vero cells)” value 5 ng/mL. Against it:
- B2 — 3.2-fold higher, 16 ng/mL
- B3 — 69-fold higher, 346 ng/mL
- B4 — 3.2-fold higher, 16 ng/mL
